{
  "source": "paper PMC8634867",
  "data": [
    {"target": "C10A mutant of Arabidopsis thaliana cytochrome c1, soluble domain (Arabidopsis thaliana)", "test": "BLI; His6-tagged Cc1 (50 ug/mL) immobilised on Ni-NTA biosensors (Octet RED 96e); Cc at 0.3215-10 uM; 10 mM sodium phosphate pH 7.4, 0.01 uM rabbit serum albumin, 0.01% Triton X-100; both proteins reduced; wavelength shift at equilibrium fitted to a non-linear equation with a linear non-specific term; in duplicate", "units": {"Kd": "nM"}, "values": [
      {"substance": "human cytochrome c K8Q acetyl-mimetic mutant (from UniProt P99999 1-105) (natural protein)", "Kd": 99},
      {"substance": "human cytochrome c K53Q acetyl-mimetic mutant (from UniProt P99999 1-105) (natural protein)", "Kd": 116},
      {"substance": "human cytochrome c, wild-type (from UniProt P99999 1-105) (natural protein)", "Kd": 137}
    ]}
  ]
}
